Data set [1] concerns MCF7. Kind of data set: percentage of EdU-negative (G0-arrested) nuclei per well, 72 h; higher = more G0 arrest. The following applies: reference: sequence is the full UniProt precursor, the tested protein was the secreted form or ectodomain.
The test system of data set [2] is hTERT-HMEC. The description is as above. To be noted: reference: sequence is the full UniProt precursor, the tested protein was the secreted form or ectodomain.
Setting [3] is: protein concentration 0.03125 µM.
The mark [4] stands for this setting: protein concentration 0.3125 µM.
Where [5] appears, read: protein concentration 0.021325 µM.
[6] abbreviates: protein concentration 0.21325 µM.
[7] abbreviates: protein concentration 0.01475 µM.
The mark [8] stands for this setting: protein concentration 0.1475 µM.
The mark [9] stands for this setting: protein concentration 0.0225 µM.
Where [10] appears, read: protein concentration 0.0165714 µM.
Where [11] appears, read: protein concentration 0.165714 µM.

± gives the standard deviation of the averaged measurements.
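Note: secreted proteins added to cultured cells, EdU pulse at the end, nuclei found by Hoechst imaging, EdU status from nuclear versus surrounding ring intensity ratio, PBS as neutral control.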

As to “MRFLAATFLLLALSTAAQAEPVQFKDCGSVDGVIKEVNVSPCPTQPCQLSKGQSYSVNVTFTSNIQSKSSKAVVHGILMGVPVPFPIPEPDGCKSGINCPIQKDKTYSYLNKLPVKSEYPSIKLVVEWQLQDDKNQSLFCWEIPVQIVSHL”, the “percentage of EdU-negative” value in data set [1] (setting [3]) was 25.6 ± 0.29%; in data set [1] (setting [4]), 27.1 ± 2%; in data set [2] (setting [3]) it was 4.48 ± 0.41%; in data set [2] (setting [4]), 5.49 ± 0.12%.

Regarding “MTAPGAAGRCPPTTWLGSLLLLVCLLASRSITEEVSEYCSHMIGSGHLQSLQRLIDSQMETSCQITFEFVDQEQLKDPVCYLKKAFLLVQDIMEDTMRFRDNTPNAIAIVQLQELSLRLKSCFTKDYEEHDKACVRTFYETPLQLLEKVKNVFNETKNLLDKDWNIFSKNCNNSFAECSSQDVVTKPDCNCLYPKAIPSSDPASVSPHQPLAPSMAPVAGLTWEDSEGTEGSSLLPGEQPLHTVDPGSAKQRPPRSTCQSFEPPETPVVKDSTIGGSPQPRPSVGAFNPGMEDILDSAMGTNWVPEEASGEASEIPVPQGTELSPSRPGGGSMQTEPARPSNFLSASSPLPASAKGQQPADVTGTALPRVGPVRPTGQDWNHTPQKTDHPSALLRDPPEPGSPRISSLRPQGLSNPSTLSAQPQLSRSHSSGSVLPLGELEGRRSTRDRRSPAEPEGGPASEGAARPLPRFNSVPLTDTGHERQSEGSFSPQLQESVFHLLVPSVILVLLAVGGLLFYRWRRRSHQEPQRADSPLEQPEGSPLTQDDRQVELPV”, the “percentage of EdU-negative” value in data set [1] (setting [5]) was found to be 21.9 ± 1.2%; in data set [1] (setting [3]) it was 26.7 ± 0.3%; in data set [1] (setting [6]) it was 27.6 ± 1.4%; in data set [1] (setting [4]), 26 ± 0.57%; in data set [2] (setting [5]), 5.8 ± 0.14%; in data set [2] (setting [3]), 4.68 ± 0.61%. Moreover, the results for the “percentage of EdU-negative” value in data set [2] (setting [6]) and in data set [2] (setting [4]) were 6.92 ± 1.3% and 6.12 ± 1.1%, respectively.

Regarding “MLLRLLLAWAAAGPTLGQDPWAAEPRAACGPSSCYALFPRRRTFLEAWRACRELGGDLATPRTPEEAQRVDSLVGAGPASRLLWIGLQRQARQCQLQRPLRGFTWTTGDQDTAFTNWAQPASGGPCPAQRCVALEASGEHRWLEGSCTLAVDGYLCQFGFEGACPALQDEAGQAGPAVYTTPFHLVSTEFEWLPFGSVAAVQCQAGRGASLLCVKQPEGGVGWSRAGPLCLGTGCSPDNGGCEHECVEEVDGHVSCRCTEGFRLAADGRSCEDPCAQAPCEQQCEPGGPQGYSCHCRLGFRPAEDDPHRCVDTDECQIAGVCQQMCVNYVGGFECYCSEGHELEADGISCSPAGAMGAQASQDLGDELLDDGEDEEDEDEAWKAFNGGWTEMPGILWMEPTQPPDFALAYRPSFPEDREPQIPYPEPTWPPPLSAPRVPYHSSVLSVTRPVVVSATHPTLPSAHQPPVIPATHPALSRDHQIPVIAANYPDLPSAYQPGILSVSHSAQPPAHQPPMISTKYPELFPAHQSPMFPDTRVAGTQTTTHLPGIPPNHAPLVTTLGAQLPPQAPDALVLRTQATQLPIIPTAQPSLTTTSRSPVSPAHQISVPAATQPAALPTLLPSQSPTNQTSPISPTHPHSKAPQIPREDGPSPKLALWLPSPAPTAAPTALGEAGLAEHSQRDDRWLLVALLVPTCVFLVVLLALGIVYCTRCGPHAPNKRITDCYRWVIHAGSKSPTEPMPPRGSLTGVQTCRTSV [Q9HCU0]”, the “percentage of EdU-negative” value is 25.7 ± 2.5% in data set [1] (setting [7]), 27.5 ± 1.9% in data set [1] (setting [8]), 4.69 ± 0.05% in data set [2] (setting [7]) and 6.87 ± 0.4% in data set [2] (setting [8]).

Consider “MALRRLGAALLLLPLLAAVEETLMDSTTATAELGWMVHPPSGWEEVSGYDENMNTIRTYQVCNVFESSQNNWLRTKFIRRRGAHRIHVEMKFSVRDCSSIPSVPGSCKETFNLYYYEADFDSATKTFPNWMENPWVKVDTIAADESFSQVDLGGRVMKINTEVRSFGPVSRSGFYLAFQDYGGCMSLIAVRVFYRKCPRIIQNGAIFQETLSGAESTSLVAARGSCIANAEEVDVPIKLYCNGDGEWLVPIGRCMCKAGFEAVENGTVCRGCPSGTFKANQGDEACTHCPINSRTTSEGATNCVCRNGYYRADLDPLDMPCTTIPSAPQAVISSVNETSLMLEWTPPRDSGGREDLVYNIICKSCGSGRGACTRCGDNVQYAPRQLGLTEPRIYISDLLAHTQYTFEIQAVNGVTDQSPFSPQFASVNITTNQAAPSAVSIMHQVSRTVDSITLSWSQPDQPNGVILDYELQYYEKELSEYNATAIKSPTNTVTVQGLKAGAIYVFQVRARTVAGYGRYSGKMYFQTMTEAEYQTSIQEKLPLIIGSSAAGLVFLIAVVVIAIVCNRRGFERADSEYTDKLQHYTSGHMTPGMKIYIDPFTYEDPNEAVREFAKEIDISCVKIEQVIGAGEFGEVCSGHLKLPGKREIFVAIKTLKSGYTEKQRRDFLSEASIMGQFDHPNVIHLEGVVTKSTPVMIITEFMENGSLDSFLRQNDGQFTVIQLVGMLRGIAAGMKYLADMNYVHRDLAARNILVNSNLVCKVSDFGLSRFLEDDTSDPTYTSALGGKIPIRWTAPEAIQYRKFTSASDVWSYGIVMWEVMSYGERPYWDMTNQDVINAIEQDYRLPPPMDCPSALHQLMLDCWQKDRNHRPKFGQIVNTLDKMIRNPNSLKAMAPLSSGINLPLLDRTIPDYTSFNTVDEWLEAIKMGQYKESFANAGFTSFDVVSQMMMEDILRVGVTLAGHQKKILNSIQVMRAQMNQIQSVEGQPLARRPRATGRTKRCQPRDVTKKTCNSNDGKKKGMGKKKTDPGRGREIQGIFFKEDSHKESNDCSCGG [Q6NVW1]”, for which the “percentage of EdU-negative” value came out at 25.8 ± 2.3% in data set [1] (setting [9]), 26.5 ± 1% in data set [1] (protein concentration 0.225 µM), 5.5 ± 0.22% in data set [2] (setting [9]) and 8.19 ± 1% in data set [2] (protein concentration 0.225 µM).

As for “MGPLSAPPCTQRITWKGLLLTALLLNFWNLPTTAQVTIEAEPTKVSKGKDVLLLVHNLPQNLAGYIWYKGQMKDLYHYITSYVVDGQIIIYGPAYSGRETVYSNASLLIQNVTREDAGSYTLHIVKRGDGTRGETGHFTFTLYLETPKPSISSSNLYPREDMEAVSLTCDPETPDASYLWWMNGQSLPMTHSLQLSKNKRTLFLFGVTKYTAGPYECEIRNPVSASRSDPVTLNLLPKLPKPYITINNLNPRENKDVLAFTCEPKSENYTYIWWLNGQSLPVSPRVKRPIENRILILPSVTRNETGPYQCEIQDRYGGIRSYPVTLNVLYGPDLPRIYPSFTYYHSGENLYLSCFADSNPPAEYSWTINGKFQLSGQKLFIPQITTKHSGLYACSVRNSATGMESSKSMTVKVSAPSGTGHLPGLNPL”, the “percentage of EdU-negative” value worked out at 24.4 ± 1.2% in data set [1] (setting [10]), 24.3 ± 0.28% in data set [1] (setting [11]), 4.85 ± 0.26% in data set [2] (setting [10]) and 5.01 ± 0.47% in data set [2] (setting [11]).

The values are drawn from the supplement of paper PMC11316812.
